The text below walks through data of a protein production outcome set (Wang et al. 2014).

A short description of the data set: label from the status in PepcDB records.

Take “MEFDKGQTLGNFIDRIRLNGYNTECVFNQSICQDIKNHYKQQCCAMCGVRGNSENTQIEVDHKDGRKDDSRVSDLSTQAFDDFQALCKACNDKKRQICKKCKETGYRFDARKIPGNHYSFYEGEAEYDGCVGCYQYDPIQYRKTCNDRIYNEGYQKGYSDGYQIGYHQKTT”: the protein production entry is listed as “failed”.

Regarding “MEFEVKKTFGKARLGVMKLHHGAVETPVFMPVGTNASVKLLTPRDLEEAGAEIILSNTFHLMLKPGVEIIKLHRGLHNFMGWKRPILTDSGGFQVFSLPKIRIDDEGVVFRSPIDGSKVFLNPEISMEVQIALGSDICMVFDHCPVPDADYEEVKEATERTYRWALRSKKAFKTENQALFGIVQGGIYPDLRRESALQLTSIGFDGYAIGGLSIGEERSLTLEMTEVTVEFLPEDKPRYFMGGGSPELILELVDRGVDMFDSVFPTRIARHGTALTWNGKLNLKASYNKRSLEPVDERCGCYTCKNFTRSYIHHLFDRGEVLGQILLTIHNINFMISLMKEVRRSIESGTFKELKSKVVEVYSSGGVNV”, the protein production entry was “not failed”.

With “MEFFAVSLDSHVFSHIKEIFLYNHNQKFYVVMMKHDDVLMILAAAALMFSFSWVHGMLLVLPLLAIPQLSSRTLKWGVLVLAVFVALLILQPMTRAVGLNISDELFRLVLLLLFTFMVALLIERIEKVRSLRELNLELKKQAEKLEDANKELEAFAYSVSHDLRVPLRAIDGFSRILVEDYEDKLDDEGVRILGIIRDNTRKMGQLIDDILLLSRAGRQEMNLAMLDMRELAESTYRELASQEEGRSIEFSVADLPPAMADRALMGQVMGNLLSNAIKFTRDRDPAVIEVGYMDGGDEHTYYVKDNGAGFDMKYASKLFGLFQRLHSQEEFEGTGVGLSIVQRIIKRHGGRVWGEGKVDGGATIYFTLPKVVK”, the protein production result was “failed”.

As to “MEFLAYFNSVISNNIFLAIILSFFAGVVASFSPCTLSSIPLLIGYVQGSEVKDNKKAFKYSLIFSIGLGITFTVIGLLTALIGKAFLGAGKFWYIILAFIMIGSGLQVLDVINLFGDKKEACKITKRREGILDAFFLGILSGILASPCATPIMAAIIAFIAASGNLVIGMIMLLMYSLGHSVLIILAGTSFGLVEKIAYSENGKKIGRVLKNILGTIIILVGLYLFYLGV”, the protein production entry was “failed”.

“MEFLIILLLLVLNGIFAMYEIALVSSSKARLETLAGKGNKSARGVLKQLEEPEKFLSTIQIGITLIGIVSGAYGGVAIADDLVPLFSLIPGAEAYARNLAMITTVVIITYLSLIIGELVPKSIALSNPERYATLFSPIMILLTKVSYPFVWFLSISTRLLNRIIGVKNEERPMTQEEIKMILHQSSEQGVIDKEETEMLRDVFRFSDKRANELMTHRRDLVIFHPDDTKDKVMKTIEEEHYSKYLLVDERKDEIIGVVSVKDIILMVGNKKEFNLREIARPALFIPESLYANKILELFKKNKNKFGVVVNEYGSTEGIITLHDLTESIFGDILEEDDTEEEDIVRRQDGSMLVEASMNIKDFMEEMGILSYEDLEDEDFTTLGGLAMFLLGGIPKAGDIFTYKNLQFEVVDMDRGRVDKLLVIKRDEEE”: the protein production result is given as “failed”.

On to “MEFMHDKSAEDEGITLVSEPMDTTVATHESRRNAAAFSSVVAPTTDDEIVHERFDPAFEVQADFYGFDENAPPLPLPEEYYSELPLPEEDRQYIPPPPALIPVEPETTFRRPRTRQQRRTESQLVQPVSVATYEDSKASLRVLMQQLPPPGDNVVARIPKRTHRVVRTLPPTFGTTKREENFYGFSKTAISWRKTRASWRHFCLLING”, for which the protein production result is on record as “failed”.

On to “MEFRLLHISDLHMIPGQETKKAWVSALDSLSPDLVINTGDNLSDEKAVPDVLRALGPLMNRPGAFVFGTNDYWAPRPVNPFGYLFGKKREVSHIDLPWRAMRAAFIEHGWQDANQKRLEFQVGSVRLAISGVDDPHHDLDDYTEIAGAPNVDADLSIALLHAPEPRVLAQFEADGYQLSLSGHTHGGQLEHHHHHH”, for which the protein production result is “failed”.

Consider “MEFSGRKWRKLRLAGDQRNASYPHCLQFYLQPPSENISLIEFENLAIDRVKLLKSVENLGVSYVKGTEQYQSKLESELRKLKFSYRENLEDEYEPRRRDHISHFILRLAYCQSEELRRWFIQQEMDLLRFRFSILPKDKIQDFLKDSQLQFEAISDEEKTLREQEIVASSPSLSGLKLGFESIYKIPFADALDLFRGRKVYLEDGFAYVPLKDIVAIILNEFRAKLSKALALTARSLPAVQSDERLQPLLNHLSHSYTGQDYSTQGNVGKISLDQIDLLSTKSFPPCMRQLHKALRENHHLRHGGRMQYGLFLKGIGLTLEQALQFWKQEFIKGKMDPDKFDKGYSYNIRHSFGKEGKRTDYTPFSCLKIILSNPPSQGDYHGCPFRHSDPELLKQKLQSYKISPGGISQILDLVKGTHYQVACQKYFEMIHNVDDCGFSLNHPNQFFCESQRILNGGKDIKKEPIQPETPQPKPSVQKTKDASSALASLNSSLEMDMEGLEDYFSEDS”, for which the protein production entry is recorded as “failed”.

Turning to “MEFTTGLMSLDTALNEMLSRVTPLTAQETLPLVQCFGRILASDVVSPLDVPGFDNSAMDGYAVRLADIASGQPLPVAGKSFAGQPYHGEWPAGTCIRIMTGAPVPEGCEAVVMQEQTEQMDNGVRFTAEVRSGQNIRRRGEDISAGAVVFPAGTRLTTAELPVIASLGIAEVPVIRKVRVALFSTGDELQLPGQPLGDGQIYDTNRLAVHLMLEQLGCEVINLGIIRDDPHALRAAFIEADSQADVVISSGGVSVGEADYTKTILEELGEIAFWKLAIKPGKPFAFGKLSNSWFCGLPGNPVSATLTFYQLVQPLLAKLSGNTASGLPARQRVRTASRLKKTPGRLDFQRGVLQRNADGELEVTTTGHQGSHIFSSFSLGNCFIVLERDRGNVEVGEWVEVEPFNALFGGL”, the protein production result was “not failed”.

As to “MEFYEVIKKRKSIKKFEQTAIDRDKLLKIIDMAMRAPSWKNKTPYKFIVVESDKLKLDIANAIENKTSAASEAVLNSPMTIVAVANPEESGDVSGKEIYLIDTAIAMEHIVLGATDEGYGTCWIAAFNENKIKEALKIPDNLRVVALTPLGVPKDSAEDEPHHPKKDMDEYLYIDKWGTSFMESNVKILEKN”, the protein production result is on record as “not failed”.

For “MEGFGMPKLIISGRGGSGKSTLVTLIAHTLKEQKKRVLVVDSDESNIGLSGILGIEPAEKTLMDYLGGKPRVMKKLRSMIRDGETEPELFREKFDLESLSQEFVCWVGSLGLMQIGKIDHAMEGCACPMGAVTRDFLNHVRLEEDQWVLVDTEAGVEHFGRGIVEGADAVVMVVDPSSDAVLLAEKAAKLTHEADKRFGVILNKIDEETEPILTELLTSEGNEIKGVLPYSPAITKMNLKGESLGAYAVKNEVDEIIRELMKCLEHHHHHH”, the protein production result is listed as “failed”.

Turning to “MEGIDMLDIKLIRENPELVKNDLIKRGELEKVKWVDEILKLDTEWRTKLKEINRLRHERNKIAVEIGKRRKKGEPVDELLAKSREIVKRIGELENEVEELKKKIDYYLWRLPNITHPSVPVGKDENDNVPIRFWGKARVWKGHLERFLEQSQGKMEYEILEWKPKLHVDLLEILGGADFARAAKVSGSRFYYLLNEIVILDLALIRFALDRLIEKGFTPVIPPYMVRRFVEEGSTSFEDFEDVIYKVEDEDLYLIPTAEHPLAGMHANEILDGKDLPLLYVGVSPCFRKEAGTAGKDTKGIFRVHQFHKVEQFVYSRPEESWEWHEKIIRNAEELFQELEIPYRVVNICTGDLGYVAAKKYDIEAWMPGQGKFREVVSASNCTDWQARRLNIRFRDRTDEKPRYVHTLNSTAIATSRAIVAILENHQEEDGTVRIPKVLWKYTGFKEIVPVEKKERCCAT”, the protein production entry is “not failed”.

On to “MEGLLIDYVQPGSIAEELEIEAGDRLVAINGQDLRDIIDFSFYAHDEELALEIVKPSGDHWEAEIERDGDEPLGLVFAPPVPAQCGNKCVFCFVHQLPKGLRRPLYVKDEDYRLSFLYGNYVTLSNIRRGDLDRIVAQRLSPLYISVHATNPALRERLLGRSEILPILDLMRELAAARIVMHSQIVLCPGLNDGVELEKTVRDLAGLHPWVESLAIVPIGLTKHRRGLPALEPVTASYAETFVQNWQPAAERLERELGAPFLFIADEFYIKAGLPFPPLETYGDLPQIENGVGMIPLFLDESERVLKKARKGKPVTVTVVTGESPYRYLAAFLERLSVRTGATFKPVAVHNRLFGESVTVTGLVAGSDIVEELSGRDLGDAVLVPDVMLKEGEGIFLDDLSVDGLGKSLGTRVLVVEATPQGVVDALRRVRSMLEHHHHHH”, for which the protein production entry is given as “failed”.
